Experimental data published in PMC4632003, “Mitofilin and CHCHD6 physically interact with Sam50 to sustain cristae structure” (Scientific Reports, 2015).

T1: GST-tagged Sam50 (Homo sapiens (Human), UniProt Q9Y512)
T1 chain: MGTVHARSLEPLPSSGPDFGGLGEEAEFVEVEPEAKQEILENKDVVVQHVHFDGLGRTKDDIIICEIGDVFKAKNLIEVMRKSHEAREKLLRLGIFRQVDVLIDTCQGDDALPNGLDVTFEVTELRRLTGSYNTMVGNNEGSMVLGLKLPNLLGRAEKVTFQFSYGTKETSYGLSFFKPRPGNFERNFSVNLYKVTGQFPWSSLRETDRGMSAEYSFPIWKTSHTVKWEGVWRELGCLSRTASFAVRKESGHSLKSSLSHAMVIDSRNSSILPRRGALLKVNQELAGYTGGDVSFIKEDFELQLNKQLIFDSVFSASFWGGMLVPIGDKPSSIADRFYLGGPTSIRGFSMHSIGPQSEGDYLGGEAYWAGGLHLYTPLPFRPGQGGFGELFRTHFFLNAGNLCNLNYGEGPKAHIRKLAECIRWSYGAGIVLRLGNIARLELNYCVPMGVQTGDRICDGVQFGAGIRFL

T2: His-tagged Mitofilin 123-758 (human, UniProt Q16891 123-758)
T2 construct: Mitofilin, human, residues 123-758, cloned into pET-28a; The methods of the pull-down name 'GST-Mitofilin' where results, legend and plasmids say His-tagged Mitofilin 123-758; its purification is not described; also called His-Mitofilin^123–758; source: E. coli
T2 sequence (looked up): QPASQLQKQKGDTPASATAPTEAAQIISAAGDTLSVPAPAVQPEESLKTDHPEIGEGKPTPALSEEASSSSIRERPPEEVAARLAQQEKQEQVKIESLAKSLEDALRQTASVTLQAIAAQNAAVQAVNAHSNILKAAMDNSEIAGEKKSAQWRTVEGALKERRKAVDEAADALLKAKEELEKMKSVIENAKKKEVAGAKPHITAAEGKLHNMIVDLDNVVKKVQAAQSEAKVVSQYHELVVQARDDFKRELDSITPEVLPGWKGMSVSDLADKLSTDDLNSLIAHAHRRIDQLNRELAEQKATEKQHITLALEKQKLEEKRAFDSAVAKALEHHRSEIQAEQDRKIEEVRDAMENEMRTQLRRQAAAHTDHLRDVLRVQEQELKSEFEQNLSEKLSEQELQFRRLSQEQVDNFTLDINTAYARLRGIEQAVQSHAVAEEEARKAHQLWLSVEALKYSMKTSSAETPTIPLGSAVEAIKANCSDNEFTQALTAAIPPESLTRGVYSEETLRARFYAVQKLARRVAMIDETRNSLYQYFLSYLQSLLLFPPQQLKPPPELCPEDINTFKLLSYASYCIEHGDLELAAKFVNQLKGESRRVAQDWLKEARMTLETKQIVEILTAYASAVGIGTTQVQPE

B1: His-tagged full-length CHCHD6 (natural protein, human, UniProt Q9BRQ6 1-235, looked up)
chain: MGSTESSEGRRVSFGVDEEERVRVLQGVRLSENVVNRMKEPSSPPPAPTSSTFGLQDGNLRAPHKESTLPRSGSSGGQQPSGMKEGVKRYEQEHAAIQDKLFQVAKREREAATKHSKASLPTGEGSISHEEQKSVRLARELESREAELRRRDTFYKEQLERIERKNAEMYKLSSEQFHEAASKMESTIKPRRVEPVCSGLQAQILHCYRDRPHEVLLCSDLVKAYQRCVSAAHKG
notes: CHCHD6, human, full length, cloned into pET-28a; also called His-CHCHD6; source: E. coli (BL21), purified (Nickel-NTA agarose)
B2: His-tagged CHCHD6 NΔ15 variant (domain or fragment, human, UniProt Q9BRQ6 16-235, looked up)
chain: VDEEERVRVLQGVRLSENVVNRMKEPSSPPPAPTSSTFGLQDGNLRAPHKESTLPRSGSSGGQQPSGMKEGVKRYEQEHAAIQDKLFQVAKREREAATKHSKASLPTGEGSISHEEQKSVRLARELESREAELRRRDTFYKEQLERIERKNAEMYKLSSEQFHEAASKMESTIKPRRVEPVCSGLQAQILHCYRDRPHEVLLCSDLVKAYQRCVSAAHKG
notes: CHCHD6, human, deletion variant that lacks the N-terminal 15 amino acids; cloned into pET-28a; source: E. coli (BL21), purified (Nickel-NTA agarose); not shown: His tag, N-terminal, kept
B3: GST-tagged Sam50 (natural protein, human, UniProt Q9Y512 1-469, looked up)
chain: MGTVHARSLEPLPSSGPDFGGLGEEAEFVEVEPEAKQEILENKDVVVQHVHFDGLGRTKDDIIICEIGDVFKAKNLIEVMRKSHEAREKLLRLGIFRQVDVLIDTCQGDDALPNGLDVTFEVTELRRLTGSYNTMVGNNEGSMVLGLKLPNLLGRAEKVTFQFSYGTKETSYGLSFFKPRPGNFERNFSVNLYKVTGQFPWSSLRETDRGMSAEYSFPIWKTSHTVKWEGVWRELGCLSRTASFAVRKESGHSLKSSLSHAMVIDSRNSSILPRRGALLKVNQELAGYTGGDVSFIKEDFELQLNKQLIFDSVFSASFWGGMLVPIGDKPSSIADRFYLGGPTSIRGFSMHSIGPQSEGDYLGGEAYWAGGLHLYTPLPFRPGQGGFGELFRTHFFLNAGNLCNLNYGEGPKAHIRKLAECIRWSYGAGIVLRLGNIARLELNYCVPMGVQTGDRICDGVQFGAGIRFL
notes: Sam50, human, full-length cDNA cloned into pGEX-6P-1; also called GST-Sam50; source: E. coli (BL21), purified (glutathione agarose)
B4: His-tagged CHCHD6 CΔ46 variant (protein)
chain: MGSTESSEGRRVSFGVDEEERVRVLQGVRLSENVVNRMKEPSSPPPAPTSSTFGLQDGNLRAPHKESTLPRSGSSGGQQPSGMKEGVKRYEQEHAAIQDKLFQVAKREREAATKHSKASLPTGEGSISHEEQKSVRLARELESREAELRRRDTFYKEQLERIERKNAEMYKLSSEQFHEAASKMESTIK

Assays:
GST-tagged Sam50 [1] = target: T1, GST-tagged Sam50; test: GST pull-down
GST-tagged Sam50 [2] = target: B3; test: pull-down; GST pull-down: 10 μg purified GST-tagged protein, 10 μg His-tagged protein and glutathione Sepharose 4B in 1 ml PBS with protease inhibitor, overnight at 4 °C, washed five times with cold PBS; Western blot; conditions: both partners purified
[3] = target: T2, His-tagged Mitofilin 123-758; test: as above; conditions: both partners purified

Row | Binder | binding result (GST-tagged Sam50 [1]) | binding result (GST-tagged Sam50 [2]) | binding result [3]
1 | B1 | binds | binds | –
2 | B2 | binds | binds | –
3 | B3 | – | – | binds
4 | B4 | no binding | – | –
